One molecule from patent US20160326219A1, “OPTICALLY ACTIVATED RECEPTORS” (IST AUSTRIA (INSTITUTE OF SCIENCE AND TECHNOLOGY AUSTRIA), priority 2013, published 2016) can be followed below.

Data set [1] has as its system M38K cells. The data set is described as follows: Stimulation and Western blot (M38K cells). It counts as cell-based, human. The note with it: ~3 μW/mm^2. From the text:
(§1) M38K and SPC212, two malignant pleural mesothelioma cell lines, were maintained in RPMI1640 supplemented with 10% FBS. Telomerase-immortalized microvascular hBE cells were maintained in Clonetics EGM2 MV endothelial growth medium (Lonza, Wakersville, Md.) supplemented with 5% FBS. For retrovirus generation, Opto-mFGFR1 or mCherry as control was subcloned into pQCXIP (Clontech, Mountain View, Calif.) using EcoRI and NotI restriction enzymes. Viral particles were generated in HEK293 cells by co-transfection with the helper plasmids pVSV-G and p-gag-pol-gpt. Supernatants were used to transduce M38K, SPC212 or hBE cells grown to 50% confluency in 6-well plates. Cells were selected with 0.8 μg/ml puromycin for 10 d and transgene expression was verified by immunoblotting.
(§2) For immunoblotting, 5×10^5 cells were seeded in each well of 6-well plates. After 24 h, medium was replaced with reduced serum medium (M38K, SPC212). After additional 20 h, cells were transferred to the stimulation incubator and illuminated for 1, 5 or 15 min or shielded from light. Cells were then either immediately or after additional 5, 15 or 30 min in the dark washed and lysed in 50 μl lysis buffer per well on ice. Lysates were sonicated and centrifuged (12000 g, 5 min, 4° C.). […] Chemiluminescence was developed with WesternC reagent (Biorad, Hercules, Calif.) and signals recorded on X-ray film (GE Healthcare).

The test system of data set [2] is blood endothelial cells. Nature of the data set: Stimulation and Western blot (hBE cells). It counts as cell-based. The conditions noted are these: ~3 μW/mm^2.
Text: as §1, §2

In data set [3] the test system is M38K cells. The data set is described as follows: Cell cycle distribution by flow cytometry (M38K cells). The class given is cell-based, human. The method, then: Cell cycle distribution was analyzed by flow cytometry. 5×10^5 M38K cells were seeded in 25 cm^2 tissue culture flasks. After 24 h, cells were stimulated for 1 h or kept in the dark. After additional 24 h, cells were fixed in ethanol (70%), treated with 50 μg/ml RNAse A and 50 μg/ml propidium iodide (PI). Flow cytometry was performed on a FACSCalibur (BD Biosciences, Schwechat, Austria) and cell cycle distribution calculated with ModFit LT software (Verity Software House, Topsham, Me.).
On the technique in general: A flow cytometer gives signals particle by particle.

The test system of data set [4] is M38K cells. The data set is described as follows: Cell proliferation, EdU incorporation (M38K cells). The class given is cell-based, human. The method, then: 2×10^4 M38K cells were seeded in each well of 96-well plates. After 24 h, cells were stimulated for 1 h or kept in the dark. FGF2 (Sigma, St. Louis, Mo.) was added as indicated. After 24 h, cells were incubated with 10 μM EdU for 2 h. Subsequently, newly synthesized DNA was stained with Click-iT EdU (Life Technologies) following the manufacturer's protocol and counterstained with 5 μg/ml Hoechst dye. Cells were photographed on a Nikon Ti300 inverted microscope. To determine the percentage of cells with newly synthesized DNA, Hoechst positive nuclei and EdU positive nuclei were counted.

Data set [5] relates to MAPK pathway. Nature of the data set: Stimulation and detection of MAPK signaling, PathDetect Elk1 luciferase reporter (HEK293 cells). It counts as cell-based, human. The method, then:
For light stimulation of cells, an incubator (PT2499, ExoTerra/HAGEN, Holm, Germany) was equipped with 300 light emitting diodes (JS-FS505ORGB-W30 with JS-CON-004 controller, Komerci, Ebern, Germany; λmax˜630 nm (red), λmax˜530 nm (green), λmax˜470 nm (blue), bandwidth ˜±5 nm). Light intensity was controlled with an analog dimmer and measured with a digital power meter (PM120VA, Thorlabs, Munich, Germany). Intensities at maximal output were 2.3 (red), 2.6 (green) and 3.3 (blue light) W/m^2. For stimulation over extended time periods (>8 h), an aluminium box was equipped with the same light-emitting diodes and controller and placed in an incubator with standard tissue culture conditions (see below).
HEK293 cells and CHO-K1 (American Type Culture Collection (ATCC), Manassas, Va.) cells were maintained in DMEM supplemented with 10% FBS, 100 U/ml penicilin and 0.1 mg/ml streptomycin in a humidified incubator with 5% CO2 atmosphere. After trypsination, 5×10^4 cells were seeded in each well of 96-well plates (three to four wells for each construct) coated with poly-L-ornithine (Sigma, Vienna, Austria). Either transparent plates or black clear bottom plates were used. Cells were transfected using Lipofectamine 2000 (Invitrogen/LifeTech).
Phycocyanobilin (PCB; Livchem Logistics GmbH, Frankfurt a.M., Germany) was dissolved in a dark room to a stock concentration of 10 mM in DMSO. Aliquots were stored in the dark at −20° C. Prior to experiments, cells were incubated with 50 μM PCB overnight in reduced serum starve medium at 37° C. PCB could also be applied to applied to living animals as it is non-toxic even in high doses (0.17% of diet or 10 mg/kg) (McCarty (2007).
Activation of the MAPK pathway was assayed with the PathDetect Elk1 trans-Reporting System (Agilent) consisting of an Elk1 phosphorylation-dependent trans-activator and a luciferase-based trans-reporter. Cells were transfected with 213.3 ng total DNA per well (receptor, trans-activator and trans-reporter at ratio of 1:3:60 or 1:30:600) using Lipofectamine 2000. Six h after transfection medium was replaced with CO2-independent reduced serum starve medium (Gibco/Life Technologies; supplemented with 0.5% FBS, 2 mM L-Glutamine, 100 U/ml penicilin and 0.1 mg/ml streptomycin) for 18 h at 37° C. Cells were transferred and were either kept under constant illumination for 8 h or were protected from light. Chemical stimulation of imFGFR1 followed the same procedure, except that 10 nM AP20187 ((Clackson 1998); ARIAD Pharmaceuticals, Cambridge, Mass.) were added before transfer to the stimulation incubator. After incubation, plates were washed once with PBS and luciferase was detected with standard, off-the-shelf reagents. These were either Luciferase 1000 Assay System (Promega, Mannheim, Germany) in combination with a microplate reader equipped with an injector (Tecan Infinite 200 Pro, Maennedorf, Switzerland), or ONE-Glo Assay System (Promega) in combination with a microplate reader not equipped with an injector (BioTek Synergy H1). These assay systems provide equivalent results.
For orientation: Reporter assays use an easily measured gene product as a stand-in for the process of interest.

B1: Opto-mFGFR1: chimeric receptor of mFGFR1 intracellular domain and VfAU1-LOV, SEQ ID NO: 58 (protein)
chain: MGSSKSKPKDPSQRLDMKSGTKKSDFHSQMAVHKLAKSIPLRRQVTVSADSSASMNSGVLLVRPSRLSSSGTPMLAGVSEYELPEDPRWELPRDRLVLGKPLGEGCFGQVVLAEAIGLDKDKPNRVTKVAVKMLKSDATEKDLSDLISEMEMMKMIGKHKNIINLLGACTQDGPLYVIVEYASKGNLREYLQARRPPGLEYCYNPSHNPEEQLSSKDLVSCAYQVARGMEYLASKKCIHRDLAARNVLVTEDNVMKIADFGLARDIHHIDYYKKTTNGRLPVKWMAPEALFDRIYTHQSDVWSFGVLLWEIFTLGGSPYPGVPVEELFKLLKEGHRMDKPSNCTNELYMMMRDCWHAVPSQRPTFKQLVEDLDRIVALTSNQEYLDLSIPLDQYSPSFPDTRSSTCSSGEDSVFSHEPLPEEPCLPRHPTQLANSGLKRRVETGPDYSLVKALQMAQQNFVITDASLPDNPIVYASRGFLTLTGYSLDQILGRNCRFLQGPETDPRAVDKIRNAITKGVDTSVCLLNYRQDGTTFWNLFFVAGLRDSKGNIVNYVGVQSKVSEDYAKLLVNEQNIEYKGVRTSNMLRRKTGGSGVDYPYDVPDYALD
modifications: mFGFR1-VfAU1-LOV
Consider B1, for which the “Phosphorylation upon blue light stimulation” value in data set [1] was “rapid phosphorylation of Opto-mFGFR1 and ERK1/2”; in data set [2] it was “rapid phosphorylation of Opto-mFGFR1 and ERK1/2”. In addition, the “Cell cycle distribution upon light stimulation” value in data set [3] was “a shift of cell cycle distribution towards the S-phase”. Besides, the “Proliferation (% of nuclei incorporating 5-ethynyl-2'-deoxyuridine) upon light stimulation” value in data set [4] is on record as “increased proliferation”. In addition, the “MAPK pathway activation in response to blue light” value in data set [5] (HEK293 cells expressing the fusion protein (LOV domain fused to RTK intracellular domain), ~3 μW/mm^2) is on record as “activated the MAPK pathway similarly to imFGFR1”. Also, in data set [5] (HEK293 cells, control experiment), the “MAPK pathway activation in response to green light or red light” value is listed as “no effect”. Further, the “Activation by blue light after reducing the lifetime of VfAU1-LOV ~8-fold by mutation” value in data set [5] (I472V, HEK293 cells, FIG. 5c) is given as “reduces Opto-mFGFR1 activation”. Also, the “MAPK pathway activation in response to blue light after loss of kinase activity” value in data set [5] (kinase dead (Y271F, Y272F), HEK293 cells) is “no effect”. In data set [5] (low intensity blue light), the “Blue light intensity at which activated” value is ~3 μW/mm^2.
